The text below walks through data of article PMC5014153.

Holding throughout (assay): EMSA
What all share (conditions): 25 mM Hepes pH 8.0, 40 mM KCl, 5 mM MgCl2, 1 mM DTT, 1 mM EDTA, 8% glycerol; 50 ng protein, 20 fmol probe; 30 min at 28 C; native PAGE

In series [1] the target is T1, 6xHis-WRKY40 (Arabidopsis thaliana (Col-0?)) (UniProt Q9SAH7).
T1 sequence: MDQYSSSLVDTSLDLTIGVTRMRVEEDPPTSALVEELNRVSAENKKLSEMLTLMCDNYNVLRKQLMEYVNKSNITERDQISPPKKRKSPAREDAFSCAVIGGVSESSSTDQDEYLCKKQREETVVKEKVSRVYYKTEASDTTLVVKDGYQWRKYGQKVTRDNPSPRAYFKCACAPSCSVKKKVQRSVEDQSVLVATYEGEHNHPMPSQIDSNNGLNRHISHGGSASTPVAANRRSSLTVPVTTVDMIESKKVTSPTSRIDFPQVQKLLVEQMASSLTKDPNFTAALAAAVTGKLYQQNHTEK

Series [2] addresses 6xHis-WRKY18 (Arabidopsis thaliana (Col-0?)) (UniProt Q9C5T4).
Series [3] deals with 6xHis-WRKY60 (Arabidopsis thaliana (Col-0?)) (UniProt Q9SK33).
Chain of 6xHis-WRKY60 (Arabidopsis thaliana (Col-0?)) (Q9SK33 whole entry): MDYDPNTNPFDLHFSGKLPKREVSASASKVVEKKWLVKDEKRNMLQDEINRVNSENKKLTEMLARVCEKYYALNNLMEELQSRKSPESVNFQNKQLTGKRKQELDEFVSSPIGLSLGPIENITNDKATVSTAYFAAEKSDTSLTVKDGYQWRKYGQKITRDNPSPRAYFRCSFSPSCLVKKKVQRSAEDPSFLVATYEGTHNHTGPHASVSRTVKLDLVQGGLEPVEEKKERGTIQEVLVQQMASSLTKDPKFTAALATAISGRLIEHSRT

Chain of 6xHis-WRKY18 (Arabidopsis thaliana (Col-0?)) (Q9C5T4 whole entry): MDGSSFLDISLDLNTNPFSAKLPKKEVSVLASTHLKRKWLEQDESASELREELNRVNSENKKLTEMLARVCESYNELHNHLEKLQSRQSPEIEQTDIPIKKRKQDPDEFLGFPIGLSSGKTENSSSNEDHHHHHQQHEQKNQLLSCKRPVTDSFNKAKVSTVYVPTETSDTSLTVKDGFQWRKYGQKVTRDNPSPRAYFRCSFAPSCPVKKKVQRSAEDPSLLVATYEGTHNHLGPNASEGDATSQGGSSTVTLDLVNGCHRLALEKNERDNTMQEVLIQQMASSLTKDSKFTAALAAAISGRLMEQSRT

With “AGTTGTAAAGTTCAGAAGGAAAAGTACTAAAATATGAAGTCAACGACAATCTTTAGAGTCAACCTTCCACTAAGAGTGTTGATTGGTTTGATGAAGCAGTGAAGGCTAGAAACTGAAGCAACTAGGGTTTGGGAAGTTACTGTTTTAACTTGTAACTGTTCGTTTGTTACTTCTTTGGTAAGGAAGTAAAACGGTGTTGTCTTATTGACCCAAAGTCTCCGCGGCTTGCTGAATAATCACAAACCTATTAAATATCC (double strand) [ProCRK5-2]”, the binding entry was “binds” in series [1], “binds” in series [2] and “no binding” in series [3].
